{
  "source": "FireProtDB (doi:10.1021/bi960855h)",
  "proteins": {"B1": {"name": "Ribonuclease pancreatic wild type, P61823 (protein)", "chain": "MALKSLVLLSLLVLVLLLVRVQPSLGKETAAAKFERQHMDSSTSAASSSNYCNQMMKSRNLTKDRCKPVNTFVHESLADVQAVCSQKNVACKNGQTNCYQSYSTMSITDCRETGSSKYPNCAYKTTQANKHIIVACEGNPYVPVHFDASV"}},
  "settings": "Bos taurus, Thermal, DSC, NaCl 200 mM, reversible: yes, whole UniProt chain shown",
  "key": {"[1]": {"settings": "pH 4, Acetic acid-Sodium acetate 10 mM"}, "[2]": {"settings": "pH 5, Acetic acid-Sodium acetate 10 mM"}},
  "data": [
    {"protein": "B1", "values": [
      {"measurement": "Tm", "setting": "[1]", "result": 44.6, "unit": "°C"},
      {"measurement": "heat capacity change of unfolding", "setting": "[1]", "result": 1.24, "unit": "kcal/mol/K"},
      {"measurement": "unfolding enthalpy (calorimetric)", "setting": "[1]", "result": 94.5, "unit": "kcal/mol"},
      {"measurement": "unfolding enthalpy (van 't Hoff)", "setting": "[1]", "result": 98.1, "unit": "kcal/mol"},
      {"measurement": "Tm", "setting": "[2]", "result": 45.5, "unit": "°C"},
      {"measurement": "heat capacity change of unfolding", "setting": "[2]", "result": 1.2, "unit": "kcal/mol/K"},
      {"measurement": "unfolding enthalpy (calorimetric)", "setting": "[2]", "result": 95.7, "unit": "kcal/mol"},
      {"measurement": "unfolding enthalpy (van 't Hoff)", "setting": "[2]", "result": 96.9, "unit": "kcal/mol"},
      {"measurement": "Tm", "setting": "pH 6, MES 10 mM", "result": 46.8, "unit": "°C"},
      {"measurement": "heat capacity change of unfolding", "setting": "pH 6, MES 10 mM", "result": 1.17, "unit": "kcal/mol/K"},
      {"measurement": "unfolding enthalpy (calorimetric)", "setting": "pH 6, MES 10 mM", "result": 98.1, "unit": "kcal/mol"},
      {"measurement": "unfolding enthalpy (van 't Hoff)", "setting": "pH 6, MES 10 mM", "result": 100, "unit": "kcal/mol"},
      {"measurement": "Tm", "setting": "pH 6.5, MES 10 mM", "result": 47.2, "unit": "°C"},
      {"measurement": "heat capacity change of unfolding", "setting": "pH 6.5, MES 10 mM", "result": 1.22, "unit": "kcal/mol/K"},
      {"measurement": "unfolding enthalpy (calorimetric)", "setting": "pH 6.5, MES 10 mM", "result": 99.3, "unit": "kcal/mol"},
      {"measurement": "unfolding enthalpy (van 't Hoff)", "setting": "pH 6.5, MES 10 mM", "result": 100, "unit": "kcal/mol"},
      {"measurement": "Tm", "setting": "pH 7, MOPS 10 mM", "result": 50.1, "unit": "°C"},
      {"measurement": "heat capacity change of unfolding", "setting": "pH 7, MOPS 10 mM", "result": 1.22, "unit": "kcal/mol/K"},
      {"measurement": "unfolding enthalpy (calorimetric)", "setting": "pH 7, MOPS 10 mM", "result": 103, "unit": "kcal/mol"},
      {"measurement": "unfolding enthalpy (van 't Hoff)", "setting": "pH 7, MOPS 10 mM", "result": 102, "unit": "kcal/mol"},
      {"measurement": "Tm", "setting": "pH 7.5, MOPS 10 mM", "result": 50.6, "unit": "°C"},
      {"measurement": "heat capacity change of unfolding", "setting": "pH 7.5, MOPS 10 mM", "result": 1.2, "unit": "kcal/mol/K"},
      {"measurement": "unfolding enthalpy (calorimetric)", "setting": "pH 7.5, MOPS 10 mM", "result": 104, "unit": "kcal/mol"},
      {"measurement": "unfolding enthalpy (van 't Hoff)", "setting": "pH 7.5, MOPS 10 mM", "result": 105, "unit": "kcal/mol"}
    ]}
  ]
}
